Measurements published in the supplement of paper PMC12667976.

B1: library; numbered along this chain (parent)
chain: MATDAALRRLLRLHRTEIAVAVDSAFPLLHALADHDVVPEDKFQETLHLKEKEGCPQAFHALLSWLLTQDSTAILDFWRVLFKDYNLERYGRLQPILDSFPKDVDLSQPRKGRKPPAVPKALVPPPRLPTKRKASEEARAAAPAALTPRGTASPGSQLKAKPPKKPESSAEQQRLPLGNGIQTMSASVQRAVAMSSGDVPGARGAVEGILIQQVFESGGSKKCIQVGGEFYTPSKFEDSGSGKNKARSSSGPKPLVRAKGAQGAAPGGGEARLGQQGSVPAPLALPSDPQLHQKNEDECAVCRDGGELICCDGCPRAFHLACLSPPLREIPSGTWRCSSCLQATVQEVQPRAEEPRPQEPPVETPLPPGLRSAGEEVRGPPGEPLAGMDTTLVYKHLPAPPSAAPLPGLDSSALHPLLCVGPEGQQNLAPGARCGVCGDGTDVLRCTHCAAAFHWRCHFPAGTSRPGTGLRCRSCSGDVTPAPVEGVLAPSPARLAPGPAKDDTASHEPALHRDDLESLLSEHTFDGILQWAIQSMARPAAPFPS

Variants of: B1
Assay: AIRE transcriptional activation functional score (insulin promoter-GFP; nonsense median 0, synonymous median 1) (normalised score); higher = higher AIRE activity (more reporter activation)
Settings: with insulin promoter-GFP reporter in HEK293
Summary of the method: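 Flp-In T-REx HEK293 landing-pad cells carrying an insulin core promoter-GFP reporter received codon-optimized AIRE NNN-codon libraries (three regions) through Bxb1 recombinase. Sorting of mCherry+, BFP− integrants took place at day 7, followed by 7 days of expansion and tile-sequencing of top 10% GFP and unselected integrant populations. A functional score was derived from select versus non-select variant enrichment with wild type subtracted. Values from variants reaching 10 counts per million in non-select were set to nonsense median 0 and synonymous median 1 and averaged over biological replicates.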

AIRE transcriptional activation functional score, by site and new letter:
T334: Y 1.17
R336: K 1.67, H 0.786, S 1.04, Y 0.141, W 0.655, P 1.38, G 1.33, A 1.02, Q 0.346, E 0.646, M 0.49, L 0.658, T 0.895, D 1.73, F 1.13, V 0.812, C 1.2, I 0.734, N 1.03
S324: A 1.37, E 0.773, D 1.13, N 1.08, V 0.994, Q 0.407, Y 1.18, W 1.45, F 1.09, P 0.628, H 0.589, T 0.785, L 1.11, R 0.621, G 1.01, I 1.06, C 1.03, K 0.415
P326: V 1.41, E 0.653, M -0.264, K 0.94, Q 0.303, W 1.08, C 1.19, F 1.72, L 1.1, S 0.881, Y 1.14, T 0.923, N 0.815, A 0.645, H 0.781, D 0.439, G 0.87, I 1.06, R 1.17
E329: P 0.962, S 1.09, K 0.00515, H 1.45, Y 1.42, F 1.58, R 0.935, Q -1.43, I 1.46, V 1.1, C 1.46, A 1.11, T 0.98, D 1.74, L 1.16, N 1.33, G 0.92, W 1.13
R328: I 1.17, K 0.67, Q 0.659, P 1.22, C 0.932, V 1.1, F 0.907, S 1.17
